Here are results for 1 substance from IntAct's records for PubMed 24880343.

This assay concerns the target pan3_drome PAN3 (UniProt Q95RR8).

PAN2-PAN3 deadenylation complex catalytic subunit PAN2 (Drosophila melanogaster (Fruit fly)), A1Z7K9 T97R;H102G, sequence (A1Z7K9 whole entry T97R/H102G, one chain of several): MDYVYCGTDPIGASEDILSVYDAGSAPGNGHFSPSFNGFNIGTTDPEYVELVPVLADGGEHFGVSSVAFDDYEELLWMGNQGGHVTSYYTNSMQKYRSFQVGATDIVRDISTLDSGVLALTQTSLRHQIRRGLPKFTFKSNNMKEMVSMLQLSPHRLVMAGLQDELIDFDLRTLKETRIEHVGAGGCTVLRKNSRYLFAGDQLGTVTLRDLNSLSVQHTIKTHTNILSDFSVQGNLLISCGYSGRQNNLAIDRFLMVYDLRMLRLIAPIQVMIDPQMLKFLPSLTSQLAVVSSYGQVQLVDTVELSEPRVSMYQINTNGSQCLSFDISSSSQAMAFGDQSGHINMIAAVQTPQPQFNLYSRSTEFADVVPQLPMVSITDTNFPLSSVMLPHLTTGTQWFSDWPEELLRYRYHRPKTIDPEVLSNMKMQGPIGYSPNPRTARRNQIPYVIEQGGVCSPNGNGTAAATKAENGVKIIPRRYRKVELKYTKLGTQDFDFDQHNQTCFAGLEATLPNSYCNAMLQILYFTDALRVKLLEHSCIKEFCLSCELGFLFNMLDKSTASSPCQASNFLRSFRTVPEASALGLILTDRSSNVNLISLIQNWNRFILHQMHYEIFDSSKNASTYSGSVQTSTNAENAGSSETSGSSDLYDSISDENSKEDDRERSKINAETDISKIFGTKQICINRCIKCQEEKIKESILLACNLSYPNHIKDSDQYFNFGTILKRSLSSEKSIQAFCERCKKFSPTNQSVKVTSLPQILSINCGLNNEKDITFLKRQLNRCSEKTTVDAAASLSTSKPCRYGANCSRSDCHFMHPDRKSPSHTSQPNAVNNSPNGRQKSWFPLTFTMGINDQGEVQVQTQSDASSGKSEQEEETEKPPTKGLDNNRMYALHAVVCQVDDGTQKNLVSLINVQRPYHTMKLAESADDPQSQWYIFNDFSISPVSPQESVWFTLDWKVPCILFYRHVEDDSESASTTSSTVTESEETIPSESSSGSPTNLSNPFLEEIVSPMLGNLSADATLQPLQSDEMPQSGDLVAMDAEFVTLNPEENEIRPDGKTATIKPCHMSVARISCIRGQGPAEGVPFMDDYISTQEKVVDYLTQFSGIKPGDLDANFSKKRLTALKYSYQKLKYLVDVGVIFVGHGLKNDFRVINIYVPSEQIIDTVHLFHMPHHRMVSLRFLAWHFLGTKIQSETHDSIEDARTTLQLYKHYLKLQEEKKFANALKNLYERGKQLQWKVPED
pan3_drome PAN3, sequence (Q95RR8 whole entry): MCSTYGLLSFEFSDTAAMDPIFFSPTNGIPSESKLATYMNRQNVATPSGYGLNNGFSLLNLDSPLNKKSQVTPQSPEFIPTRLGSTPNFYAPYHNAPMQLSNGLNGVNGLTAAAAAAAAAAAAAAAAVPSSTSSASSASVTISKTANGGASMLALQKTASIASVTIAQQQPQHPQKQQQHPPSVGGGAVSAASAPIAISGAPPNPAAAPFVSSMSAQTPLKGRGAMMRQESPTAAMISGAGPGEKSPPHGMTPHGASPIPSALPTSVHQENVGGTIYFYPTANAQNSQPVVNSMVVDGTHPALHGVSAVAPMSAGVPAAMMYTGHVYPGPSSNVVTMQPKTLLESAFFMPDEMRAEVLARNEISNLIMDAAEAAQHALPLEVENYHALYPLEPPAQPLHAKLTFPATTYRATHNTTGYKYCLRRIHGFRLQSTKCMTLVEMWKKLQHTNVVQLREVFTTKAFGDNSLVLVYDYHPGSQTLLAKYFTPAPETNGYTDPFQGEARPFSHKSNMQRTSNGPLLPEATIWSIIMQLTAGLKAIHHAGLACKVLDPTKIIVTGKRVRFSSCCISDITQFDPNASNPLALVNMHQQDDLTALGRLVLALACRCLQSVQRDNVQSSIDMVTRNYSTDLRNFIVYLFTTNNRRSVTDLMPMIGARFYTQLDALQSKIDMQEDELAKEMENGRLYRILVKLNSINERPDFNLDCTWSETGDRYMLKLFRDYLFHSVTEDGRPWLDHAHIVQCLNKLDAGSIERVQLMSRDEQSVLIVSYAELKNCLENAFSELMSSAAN

Consider “PAN2-PAN3 deadenylation complex catalytic subunit PAN2 (Drosophila melanogaster (Fruit fly)), A1Z7K9 T97R;H102G”, for which the “effect of a mutation on the interaction” value is on record as “disrupting interaction strength”.
